Test results: paper doi:10.1101/2025.04.04.646765, “Molecular basis for multidrug efflux by an anaerobic RND transporter” (bioRxiv, 2025)

B1: Escherichia coli multidrug transporter MdtF, wild type (MdtF-6xHis) in SMA lipid particles (natural protein)
chain: MANYFIDRPVFAWVLAIIMMLAGGLAIMNLPVAQYPQIAPPTITVSATYPGADAQTVEDSVTQVIEQNMNGLDGLMYMSSTSDAAGNASITLTFETGTSPDIAQVQVQNKLQLAMPSLPEAVQQQGISVDKSSSNILMVAAFISDNGSLNQYDIADYVASNIKDPLSRTAGVGSVQLFGSEYAMRIWLDPQKLNKYNLVPSDVISQIKVQNNQISGGQLGGMPQAADQQLNASIIVQTRLQTPEEFGKILLKVQQDGSQVLLRDVARVELGAEDYSTVARYNGKPAAGIAIKLAAGANALDTSRAVKEELNRLSAYFPASLKTVYPYDTTPFIEISIQEVFKTLVEAIILVFLVMYLFLQNFRATIIPTIAVPVVILGTFAILSAVGFTINTLTMFGMVLAIGLLVDDAIVVVENVERVIAEDKLPPKEATHKSMGQIQRALVGIAVVLSAVFMPMAFMSGATGEIYRQFSITLISSMLLSVFVAMSLTPALCATILKAAPEGGHKPNALFARFNTLFEKSTQHYTDSTRSLLRCTGRYMVVYLLICAGMAVLFLRTPTSFLPEEDQGVFMTTAQLPSGATMVNTTKVLQQVTDYYLTKEKDNVQSVFTVGGFGFSGQGQNNGLAFISLKPWSERVGEENSVTAIIQRAMIALSSINKAVVFPFNLPAVAELGTASGFDMELLDNGNLGHEKLTQARNELLSLAAQSPNQVTGVRPNGLEDTPMFKVNVNAAKAEAMGVALSDINQTISTAFGSSYVNDFLNQGRVKKVYVQAGTPFRMLPDNINQWYVRNASGTMAPLSAYSSTEWTYGSPRLERYNGIPSMEILGEAAAGKSTGDAMKFMADLVAKLPAGVGYSWTGLSYQEALSSNQAPALYAISLVVVFLALAALYESWSIPFSVMLVVPLGVVGALLATDLRGLSNDVYFQVGLLTTIGLSAKNAILIVEFAVEMMQKEGKTPIEAIIEAARMRLRPILMTSLAFILGVLPLVISHGAGSGAQNAVGTGVMGGMFAATVLAIYFVPVFFVVVEHLFARFKKA
notes: also called MdtF^WT; apo-MdtF^WT; source: E. coli C43(DE3) ΔacrAB, extracted in SMALPs, purified (Ni-NTA, SEC)
B2: Escherichia coli multidrug transporter MdtF, single-point mutant V610F (MdtF-6xHis) in SMA lipid particles (natural protein)
chain: MANYFIDRPVFAWVLAIIMMLAGGLAIMNLPVAQYPQIAPPTITVSATYPGADAQTVEDSVTQVIEQNMNGLDGLMYMSSTSDAAGNASITLTFETGTSPDIAQVQVQNKLQLAMPSLPEAVQQQGISVDKSSSNILMVAAFISDNGSLNQYDIADYVASNIKDPLSRTAGVGSVQLFGSEYAMRIWLDPQKLNKYNLVPSDVISQIKVQNNQISGGQLGGMPQAADQQLNASIIVQTRLQTPEEFGKILLKVQQDGSQVLLRDVARVELGAEDYSTVARYNGKPAAGIAIKLAAGANALDTSRAVKEELNRLSAYFPASLKTVYPYDTTPFIEISIQEVFKTLVEAIILVFLVMYLFLQNFRATIIPTIAVPVVILGTFAILSAVGFTINTLTMFGMVLAIGLLVDDAIVVVENVERVIAEDKLPPKEATHKSMGQIQRALVGIAVVLSAVFMPMAFMSGATGEIYRQFSITLISSMLLSVFVAMSLTPALCATILKAAPEGGHKPNALFARFNTLFEKSTQHYTDSTRSLLRCTGRYMVVYLLICAGMAVLFLRTPTSFLPEEDQGVFMTTAQLPSGATMVNTTKVLQQVTDYYLTKEKDNVQSVFTFGGFGFSGQGQNNGLAFISLKPWSERVGEENSVTAIIQRAMIALSSINKAVVFPFNLPAVAELGTASGFDMELLDNGNLGHEKLTQARNELLSLAAQSPNQVTGVRPNGLEDTPMFKVNVNAAKAEAMGVALSDINQTISTAFGSSYVNDFLNQGRVKKVYVQAGTPFRMLPDNINQWYVRNASGTMAPLSAYSSTEWTYGSPRLERYNGIPSMEILGEAAAGKSTGDAMKFMADLVAKLPAGVGYSWTGLSYQEALSSNQAPALYAISLVVVFLALAALYESWSIPFSVMLVVPLGVVGALLATDLRGLSNDVYFQVGLLTTIGLSAKNAILIVEFAVEMMQKEGKTPIEAIIEAARMRLRPILMTSLAFILGVLPLVISHGAGSGAQNAVGTGVMGGMFAATVLAIYFVPVFFVVVEHLFARFKKA
notes: also called MdtF^V610F; apo-MdtF^V610F; source: E. coli C43(DE3) ΔacrAB, extracted in SMALPs, purified (Ni-NTA, SEC)

Molecular target: the molecule itself
Assay: cryo-EM structure

Protein | stoichiometry N | binding result
B1 | 3 | –
B2 | – | binds
